1 molecule from patent US20190153097A1 (AGENCY FOR SCIENCE TECHNOLOGY AND RESEARCH, published 2019) can be followed below.

The target in the test is T1, human CTLA-4 (human, UniProt P16410 36-161, limits assumed).
T1 construct: Soluble protein, construct not described; also called huCTLA-4; CD152
The experiment in a line: blocking ELISA: CD80 coated, antibody pre-incubated with human CTLA-4, binding of CTLA-4 to CD80 detected.

T1 sequence (P16410 36-161 limits assumed): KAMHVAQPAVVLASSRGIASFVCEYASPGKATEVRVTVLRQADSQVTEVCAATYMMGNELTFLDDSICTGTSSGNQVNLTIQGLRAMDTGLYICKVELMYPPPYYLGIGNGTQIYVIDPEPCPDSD

B1: L3D10 (commercial mouse anti-human CTLA-4 IgG1) (antibody, V domains shown)
VH: QVQLKESGPGLVAPSQSLSITCTVSGFSLTSYGLSWVRQPPGKGLEWLGVIWYDGNTNFHSALISRLTISKDNSKSQVFLELNSLQTDDTATYYCAKTEGHYYGSNYGYYALDYWGQGTSVTVSS
VL: DIQMTQSPASLSVSVGETVTITCRASENIYSNLAWYQQKQGKSPQLLVYAATNLADGVPSRFSGSGSGTQYSLKINSLQSEDFGTYFCQHLWGTPYTFGGGTKLEIK
Take B1: the “IC50 (read off the curve)” value is ~2 nM.
